From patent US20170102393A1

Experiments:
[1] = target: integrin β7 (β7 receptor) on cynomolgus monkey peripheral-blood T cells / lymphocytes (cynomolgus monkey (Macaca fascicularis)); experiment: cell-based or functional assay
[2] = target: αEβ7 integrin (Homo sapiens (Human)) (UniProt P38570); experiment: blocking of E-cadherin binding to αEβ7; assay not described
[3] = target: integrin β7 (β7 receptor) on cynomolgus monkey peripheral-blood T cells / lymphocytes (cynomolgus monkey (Macaca fascicularis)); experiment: β7 receptor occupancy by flow cytometry against serum concentration, dosed cynomolgus monkeys
[4] = target: α4β7 integrin (Homo sapiens (Human)) (UniProt P13612); experiment: blocking of α4β7 interactions with MadCAM-1, VCAM-1 and fibronectin (range told for the three ligands); assay not described

Chain of UniProt P38570 (P38570 19-1179 limits assumed, form in doubt, chain 1 of 2): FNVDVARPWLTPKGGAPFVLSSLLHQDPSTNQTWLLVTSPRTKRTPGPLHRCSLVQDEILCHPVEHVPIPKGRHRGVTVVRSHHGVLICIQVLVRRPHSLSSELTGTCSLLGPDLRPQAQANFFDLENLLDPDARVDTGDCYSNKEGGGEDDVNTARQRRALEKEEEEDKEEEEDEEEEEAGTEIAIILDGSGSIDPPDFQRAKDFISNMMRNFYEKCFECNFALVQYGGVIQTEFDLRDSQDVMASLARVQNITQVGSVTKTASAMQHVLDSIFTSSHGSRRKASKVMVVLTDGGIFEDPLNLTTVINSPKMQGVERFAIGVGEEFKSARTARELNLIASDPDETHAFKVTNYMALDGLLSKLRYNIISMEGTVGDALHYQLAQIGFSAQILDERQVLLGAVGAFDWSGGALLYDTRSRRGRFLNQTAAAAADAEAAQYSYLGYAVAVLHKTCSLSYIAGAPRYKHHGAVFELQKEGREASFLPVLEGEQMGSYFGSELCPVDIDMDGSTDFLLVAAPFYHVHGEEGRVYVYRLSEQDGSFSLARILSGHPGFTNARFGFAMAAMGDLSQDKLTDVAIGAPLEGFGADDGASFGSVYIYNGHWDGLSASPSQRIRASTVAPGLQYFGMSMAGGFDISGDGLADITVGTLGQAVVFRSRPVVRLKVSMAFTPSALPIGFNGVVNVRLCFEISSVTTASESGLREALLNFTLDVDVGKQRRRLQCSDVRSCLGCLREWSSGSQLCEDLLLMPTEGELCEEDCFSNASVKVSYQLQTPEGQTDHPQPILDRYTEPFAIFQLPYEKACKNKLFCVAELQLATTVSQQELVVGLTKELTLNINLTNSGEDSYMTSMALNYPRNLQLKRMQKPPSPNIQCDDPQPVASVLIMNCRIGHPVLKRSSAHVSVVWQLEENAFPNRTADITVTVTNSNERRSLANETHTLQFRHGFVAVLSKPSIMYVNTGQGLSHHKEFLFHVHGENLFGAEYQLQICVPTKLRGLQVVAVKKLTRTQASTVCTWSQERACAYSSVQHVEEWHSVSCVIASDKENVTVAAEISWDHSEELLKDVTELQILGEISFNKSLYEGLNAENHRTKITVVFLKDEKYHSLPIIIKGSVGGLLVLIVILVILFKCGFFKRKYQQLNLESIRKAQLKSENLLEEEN
Chain of UniProt P38570 (beta, as listed by the source limits assumed, form in doubt, chain 2 of 2): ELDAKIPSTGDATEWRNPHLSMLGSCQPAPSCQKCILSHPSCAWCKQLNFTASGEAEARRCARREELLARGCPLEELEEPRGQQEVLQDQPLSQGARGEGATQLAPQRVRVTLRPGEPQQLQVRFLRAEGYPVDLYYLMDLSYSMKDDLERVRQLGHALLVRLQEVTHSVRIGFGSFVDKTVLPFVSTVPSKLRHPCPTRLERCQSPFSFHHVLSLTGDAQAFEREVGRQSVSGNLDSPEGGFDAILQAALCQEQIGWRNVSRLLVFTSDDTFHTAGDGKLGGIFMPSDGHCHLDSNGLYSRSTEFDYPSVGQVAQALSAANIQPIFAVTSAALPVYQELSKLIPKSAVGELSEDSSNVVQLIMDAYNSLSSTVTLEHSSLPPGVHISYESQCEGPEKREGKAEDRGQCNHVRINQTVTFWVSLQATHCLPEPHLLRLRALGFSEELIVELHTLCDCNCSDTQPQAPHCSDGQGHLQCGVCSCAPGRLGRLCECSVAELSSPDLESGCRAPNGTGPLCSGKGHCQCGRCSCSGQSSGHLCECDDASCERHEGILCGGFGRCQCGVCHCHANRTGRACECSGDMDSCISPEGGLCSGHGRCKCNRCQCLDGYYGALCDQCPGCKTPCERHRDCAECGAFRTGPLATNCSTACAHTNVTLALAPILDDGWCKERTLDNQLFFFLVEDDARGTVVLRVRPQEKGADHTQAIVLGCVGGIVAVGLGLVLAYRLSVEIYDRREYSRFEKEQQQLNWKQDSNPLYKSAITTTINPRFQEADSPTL

CD45RA+ β7intermediate T cells in peripheral blood, increase over baseline, four weekly doses of 25 mg/kg, cynomolgus monkeys [1]: 2.5 fold
CD45RA- β7high T cells in peripheral blood, increase over baseline, four weekly doses of 25 mg/kg, cynomolgus monkeys [1]: 5 fold
group mean CD45RA- β7high CD4+ lymphocytes in peripheral blood, increase over baseline, 5 mg/kg IV weekly, cynomolgus monkeys [1]: 4 to 5 fold
group mean CD45RA- β7high CD4+ lymphocytes in peripheral blood, increase over baseline, 15 or 50 mg/kg IV or SC weekly, cynomolgus monkeys [1]: 5 to 6 fold
IC50 [2]: 5 nM
serum concentration that maintains complete β7-receptor saturation [3]: 1 to 10 µg/mL
serum level below which available β7 is detected (desaturation) [3]: 10 µg/mL
IC50 [4]: 0.07 to 0.1 nM
B1: rhuMAb Beta7, recombinant humanized monoclonal anti-beta7 integrin antibody (antibody, from a related filing, V domains shown)
VH: EVQLVESGGGLVQPGGSLRLSCAASGFFITNNYWGWVRQAPGKGLEWVGYISYSGSTSYNPSLKSRFTISRDTSKNTFYLQMNSLRAEDTAVYYCARTGSSGYFDFWGQGTLVTVSS
VL: DIQMTQSPSSLSASVGDRVTITCRASESVDDLLHWYQQKPGKAPKLLIKYASQSISGVPSRFSGSGSGTDFTLTISSLQPEDFATYYCQQGNSLPNTFGQGTKVEIKR
